Source: publication PMC7497679, “Structure-based design, synthesis, and evaluation of the biological activity of novel phosphoroorganic small molecule IAP antagonists” (Investigational New Drugs, 2020)

Target: X-linked inhibitor of apoptosis protein (XIAP) BIR3 domain (human)
Experiment: fluorescence polarisation; competition: XIAP BIR3 (50 nM) added to the competitor (50 µM to 0.640 nM or to 0.0537 nM), 15 min at r.t., then probe 4 (2 nM), read 30 min later; phosphate buffer pH 7.5 with γ-globulin 100 µg/mL and NaN3 0.02%, final DMSO 1.4%

H-AVPW-OH [tetrapeptide H2N-Ala-Val-Pro-Trp-OH (3)]
EC50: 340 nM
